Source: article PMC2735609 (Cellular signalling, 2009)

Legend:
Test in all cases: radioligand binding
[1] = biological target: hLHR(Y546F), on intact HEK293 cells (human, UniProt P22888 27-699, Y546F)
[2] = biological target: hLHR(D405N), on intact HEK293 cells (human, UniProt P22888 27-699, D405N)
[3] = biological target: hLHR(D405N,Y546F), on intact HEK293 cells (human, UniProt P22888 27-699, D405N | Y546F)
hLHR(D405N,Y546F), on intact HEK293 cells, sequence (P22888 27-699 D405N/Y546F): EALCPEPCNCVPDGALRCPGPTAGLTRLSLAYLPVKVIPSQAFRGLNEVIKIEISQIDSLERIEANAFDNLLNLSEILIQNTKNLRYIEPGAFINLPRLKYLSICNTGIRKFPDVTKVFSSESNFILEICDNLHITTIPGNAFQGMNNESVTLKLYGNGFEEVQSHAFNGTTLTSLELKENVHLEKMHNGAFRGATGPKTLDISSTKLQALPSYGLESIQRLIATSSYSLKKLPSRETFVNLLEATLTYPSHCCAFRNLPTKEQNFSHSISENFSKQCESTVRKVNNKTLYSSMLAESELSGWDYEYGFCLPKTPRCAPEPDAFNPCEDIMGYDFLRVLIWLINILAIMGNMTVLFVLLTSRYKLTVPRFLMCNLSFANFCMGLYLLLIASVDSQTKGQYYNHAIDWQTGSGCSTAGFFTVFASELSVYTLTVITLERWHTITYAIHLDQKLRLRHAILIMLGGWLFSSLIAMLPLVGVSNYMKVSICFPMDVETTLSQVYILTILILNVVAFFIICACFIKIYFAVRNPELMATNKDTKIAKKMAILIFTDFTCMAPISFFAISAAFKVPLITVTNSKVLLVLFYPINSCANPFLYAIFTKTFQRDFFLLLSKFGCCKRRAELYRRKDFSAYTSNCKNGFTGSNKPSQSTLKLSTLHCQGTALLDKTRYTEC

hLHR(D405N), on intact HEK293 cells, sequence (P22888 27-699 D405N): as the sequence (P22888 27-699 D405N/Y546F) above, with F520Y counted along it
hLHR(Y546F), on intact HEK293 cells, sequence (P22888 27-699 Y546F): as the sequence (P22888 27-699 D405N/Y546F) above, with N379D counted along it

hCG bound to intact cells [1]: 22.6 ng hCG/10^6 cells
hCG bound to intact cells [2]: 20.4 ng hCG/10^6 cells
hCG bound to intact cells [3]: 8.7 ng hCG/10^6 cells
B1: human chorionic gonadotropin (hCG), highly purified recombinant, 125I-labelled (ligand)
chain 1: not shown
chain 2: SKEPLRPRCRPINATLAVEKEGCPVCITVNTTICAGYCPTMTRVLQGVLPALPQVVCNYRDVRFESIRLPGCPRGVNPVVSYAVALSCQCALCRRSTTDCGGPKDHPLTCDDPRFQDSSSSKAPPPSLPSPSRLPGPSDTPILPQ
modifications: 125I label (which chain is not stated) | 125I label (which chain is not stated)
